Measured values as given in article PMC11393341, “The ASC inflammasome adapter governs SAA-derived protein aggregation in inflammatory amyloidosis” (EMBO Molecular Medicine, 2024).

Biological target: T1, Monomeric human ASC-His (recombinant full-length ASC) (human, UniProt Q9ULZ3 1-195)
T1 construct: ASC (apoptosis-associated speck-like protein containing a CARD), human, recombinant full-length, monomeric; The methods list ASC-His and ASC-GFP-His; also called apoptosis-associated speck-like protein containing a caspase recruitment domain; monomeric recombinant human ASC; source: E. coli BL21(DE3), purified from inclusion bodies (Nickel beads, size exclusion chromatography)
Test: limited proteolysis-coupled mass spectrometry (LiP-MS); purified monomeric recombinant ASC incubated with monomeric recombinant human SAA1, 15 min at 37 °C in LiP buffer (100 mM HEPES pH 7.4, 150 mM KCl, 1 mM MgCl2); proteinase K 1:100 (w/w) 5 min at 37 °C; ASC peptides compared with and without SAA1
Settings: both partners purified

T1 sequence (Q9ULZ3 whole entry, the tested form may be a part): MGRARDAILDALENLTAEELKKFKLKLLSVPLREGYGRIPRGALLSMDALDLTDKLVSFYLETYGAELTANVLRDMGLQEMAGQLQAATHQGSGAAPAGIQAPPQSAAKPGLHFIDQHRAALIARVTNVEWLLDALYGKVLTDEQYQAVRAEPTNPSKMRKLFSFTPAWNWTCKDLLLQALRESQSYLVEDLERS

- binding result: binds
B1: recombinant human SAA1 (natural protein, UniProt P0DJI8 19-122, looked up)
chain: RSFFSFLGEAFDGARDMWRAYSDMREANYIGSDKYFHARGNYDAAKRGPGGAWAAEVITDARENIQRFFGHGAEDSLADQAANEWGRSGKDPNHFRPAGLPEKY
notes: Serum amyloid A-1 (SAA1), human, recombinant; The assay format tells the two apart; How the fibrils were made is not described; also called serum amyloid A; monomeric recombinant human SAA1
